Test results from the supplement of paper PMC10126150.
± gives the standard deviation of the averaged measurements.

Test system: ATP
Assay: switch fluorescence ratio, 500 uM ATP over buffer (Cy3 cluster intensity, sum of 5 cycles each) (fold (ratio)); higher = stronger signal-on switching upon ATP binding; sequences stand for … in TCGTCGGCAGCGTCAGATGTGTATAAGAGACAGTTTTTTTTTTTTTTTTTTTTTTTTT…TC
Conditions: aptamer strand: ATP DNA aptamer (quencher-CACCTGGGGGAGTATTGCGGAGGAAGG + anchor), 100 nM annealed; ATP concentration: 500 uM
Procedure, shortened: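 Exposure to 500 uM ATP lasted 15 min at 22 °C before imaging, and a selection-buffer image was taken beforehand, for Cy3-labelled switching-strand clusters on a modified Illumina MiSeq flow-cell annealed to 100 nM quencher-labelled ATP aptamer. Five buffer/ATP cycles were run with NaOH stripping and re-annealing between them. The fluorescence ratio per cluster is summed target-cycle over summed buffer-cycle Cy3 intensity, averaged per switch-domain sequence. Clusters outside 100-1000 RFU were excluded.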

Row | Sequence | switch fluorescence ratio
1 | CACCGACTTT | 1.06 ± 0.0014
2 | CACCGTGGTC | 1.14 ± 0.023
3 | CACCGTTTTC | 1.1 ± 0.028
4 | CACCTACATG | 1.21 ± 0.031
5 | CACCTCAGAT | 1.05 ± 0.023
6 | CACCTTACTT | 1.26 ± 0.062
7 | CACGCATTTT | 1.12 ± 0.089
8 | CACGGAAGCA | 1.07 ± 0.019
9 | CACGGAGCAG | 2.52 ± 0.15
10 | CACGGATAAA | 1.04 ± 0.022
11 | CACGGATGGT | 1.01 ± 0.069
12 | CACGGCAAGA | 1.89 ± 0.087
13 | CACGGCCCAA | 0.9224 ± 0.0023
14 | CACGGGGTTT | 0.954 ± 0.011
15 | CACGGTATTT | 1.19 ± 0.067
16 | CACGTCTGAA | 0.996 ± 0.047
17 | CACGTTCAGC | 1.04 ± 0.035
18 | CACGTTGCCT | 0.979 ± 0.052
19 | CACGTTGTTT | 0.9963 ± 0.0019
20 | CACGTTTCCT | 1.1 ± 0.067
21 | CACTAACCAT | 1.09 ± 0.069
22 | CACTAAGTGG | 1.025 ± 0.0023
23 | CACTCTCAGC | 1.04 ± 0.012
24 | CACTCTGTGT | 1.02 ± 0.026
25 | CACTGACTTA | 1.19 ± 0.032

Row | Sequence | switch fluorescence ratio
26 | CACTGCTCCT | 1.09 ± 0.013
27 | CACTGGGGAT | 0.981 ± 0.046
28 | CACTGGGGTG | 1.04 ± 0.038
29 | CACTGTAACC | 1.19 ± 0.072
30 | CACTGTGAAT | 1.009 ± 0.0024
31 | CACTTTTTTA | 0.962 ± 0.039
32 | CAGAAATTAG | 1.005 ± 0.0024
33 | CAGAACTCTT | 0.963 ± 0.034
34 | CAGAAGCCTG | 1.014 ± 0.0028
35 | CAGAAGGGAG | 0.98 ± 0.01
36 | CAGAAGGGCG | 1 ± 0.036
37 | CAGAAGTTTG | 1 ± 0.034
38 | CAGAATGCGG | 0.991 ± 0.023
39 | CAGAATGTGG | 0.996 ± 0.068
40 | CAGACAGGGG | 1.05 ± 0.02
41 | CAGACCAGCT | 1.02 ± 0.036
42 | CAGACGGAGT | 1.039 ± 0.01
43 | CAGACGGGGG | 1.01 ± 0.026
44 | CAGACGGGTC | 1 ± 0.041
45 | CAGAGACCTG | 1.02 ± 0.057
46 | CAGAGAGGTC | 1.03 ± 0.039
47 | CAGAGATTCT | 0.992 ± 0.0077
48 | CAGAGGGACT | 1.01 ± 0.023
49 | CAGAGGGCGG | 0.981 ± 0.047
50 | CAGAGGTAGG | 0.973 ± 0.023

Row | Sequence | switch fluorescence ratio
51 | CAGAGGTTCC | 1.05 ± 0.042
52 | CAGAGTACGT | 1.036 ± 0.0091
53 | CAGAGTCTGT | 0.999 ± 0.022
54 | CAGAGTGTGG | 0.955 ± 0.026
55 | CAGAGTTAAT | 0.993 ± 0.045
56 | CAGAGTTTAG | 0.973 ± 0.032
57 | CAGATCCGGG | 1 ± 0.024
58 | CAGATGCGGA | 0.984 ± 0.017
59 | CAGATTTTTA | 1.01 ± 0.029
60 | CAGCAACTCA | 1.65 ± 0.024
61 | CAGCAGAGGG | 1.01 ± 0.01
62 | CAGCGGCGGA | 0.981 ± 0.029
63 | CAGCGGGGGA | 1.012 ± 0.0014
64 | CAGCGGGGGT | 1.03 ± 0.05
65 | CAGCGTATTT | 1.03 ± 0.036
66 | CAGCGTGGCA | 1 ± 0.021
67 | CAGCGTTGTT | 0.993 ± 0.018
68 | CAGCTAACTT | 1.0399 ± 0.00052
69 | CAGCTACGTC | 1.01 ± 0.04
70 | CAGCTAGAGG | 1 ± 0.037
71 | CAGCTGAGGC | 0.976 ± 0.038
72 | CAGCTGGGGA | 1.01 ± 0.055
73 | CAGCTGGGGG | 1 ± 0.024
74 | CAGGAAAGCA | 0.994 ± 0.031
75 | CAGGAAAGCT | 1.234 ± 0.0051

Row | Sequence | switch fluorescence ratio
76 | CAGGAATGCG | 1.04 ± 0.055
77 | CAGGACTTGC | 0.995 ± 0.03
78 | CAGGAGACGC | 1.05 ± 0.036
79 | CAGGAGGAGA | 1.025 ± 0.01
80 | CAGGAGGGGT | 1.03 ± 0.025
81 | CAGGAGTGTA | 1.03 ± 0.036
82 | CAGGATGGGC | 0.977 ± 0.027
83 | CAGGCAAGCG | 1.04 ± 0.026
84 | CAGGCAGCAT | 1.32 ± 0.089
85 | CAGGCAGGTC | 0.997 ± 0.024
86 | CAGGCATAAG | 0.9805 ± 0.0036
87 | CAGGCATAGG | 1.06 ± 0.033
88 | CAGGCATGAG | 1.01 ± 0.011
89 | CAGGCCGTAT | 1.01 ± 0.016
90 | CAGGCGAGTG | 0.96 ± 0.014
91 | CAGGCGGAGA | 0.969 ± 0.026
92 | CAGGCGGCCC | 1.019 ± 0.01
93 | CAGGCGGGTG | 1.06 ± 0.11
94 | CAGGCTAGGT | 0.9873 ± 0.0049
95 | CAGGGAACGG | 1.05 ± 0.022
96 | CAGGGACATT | 1.08 ± 0.067
97 | CAGGGACGGA | 1.02 ± 0.017
98 | CAGGGACGTT | 0.987 ± 0.02
99 | CAGGGAGTAG | 1.01 ± 0.021
100 | CAGGGCATGG | 1.01 ± 0.0073
